Experimental data reported in patent publication US20200283521A1 (GRANULAR THERAPEUTICS, published 2020).
Read-outs that look alike come from different tables or passages of the source.

T1: PPT1 (human, UniProt P50897)
T1 construct: expressed in transfected HEK293 cells
T1 sequence (looked up): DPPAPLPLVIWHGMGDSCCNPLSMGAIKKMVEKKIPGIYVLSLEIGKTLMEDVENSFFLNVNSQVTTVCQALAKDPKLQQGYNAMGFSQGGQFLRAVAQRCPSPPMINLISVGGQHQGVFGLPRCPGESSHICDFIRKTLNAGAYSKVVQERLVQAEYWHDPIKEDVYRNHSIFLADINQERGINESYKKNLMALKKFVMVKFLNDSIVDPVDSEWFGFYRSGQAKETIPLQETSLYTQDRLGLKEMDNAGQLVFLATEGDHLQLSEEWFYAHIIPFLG

T2: MS4A1 (human, UniProt P11836)
T2 construct: expressed in transfected HEK293 cells; also called CD20
T2 sequence (looked up): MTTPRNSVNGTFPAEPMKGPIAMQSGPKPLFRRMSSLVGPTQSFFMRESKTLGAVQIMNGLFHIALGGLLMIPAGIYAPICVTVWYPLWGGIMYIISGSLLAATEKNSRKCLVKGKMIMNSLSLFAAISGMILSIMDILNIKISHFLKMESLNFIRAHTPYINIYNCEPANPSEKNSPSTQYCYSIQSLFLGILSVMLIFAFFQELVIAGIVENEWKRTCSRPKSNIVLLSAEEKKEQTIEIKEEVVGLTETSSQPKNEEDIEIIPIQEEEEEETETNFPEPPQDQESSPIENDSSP

T3: PSAPL1 (human, UniProt Q6NUJ1)
T3 construct: expressed in transfected HEK293 cells
T3 sequence (looked up): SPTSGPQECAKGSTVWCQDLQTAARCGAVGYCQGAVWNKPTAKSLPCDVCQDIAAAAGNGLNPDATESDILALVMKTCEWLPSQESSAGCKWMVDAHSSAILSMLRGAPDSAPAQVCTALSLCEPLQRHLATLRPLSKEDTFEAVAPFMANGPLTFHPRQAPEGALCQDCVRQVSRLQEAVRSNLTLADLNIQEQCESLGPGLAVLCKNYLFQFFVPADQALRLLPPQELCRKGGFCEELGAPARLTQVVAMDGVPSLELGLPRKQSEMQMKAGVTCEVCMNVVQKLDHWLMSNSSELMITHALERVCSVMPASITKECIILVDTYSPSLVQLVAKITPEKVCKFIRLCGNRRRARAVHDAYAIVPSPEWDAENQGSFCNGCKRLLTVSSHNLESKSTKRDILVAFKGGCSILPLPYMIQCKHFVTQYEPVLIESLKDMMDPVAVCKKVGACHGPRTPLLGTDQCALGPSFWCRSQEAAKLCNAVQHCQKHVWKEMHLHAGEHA

T4: ANXA6 (human, UniProt P08133)
T4 construct: expressed in transfected HEK293 cells
T4 sequence (looked up): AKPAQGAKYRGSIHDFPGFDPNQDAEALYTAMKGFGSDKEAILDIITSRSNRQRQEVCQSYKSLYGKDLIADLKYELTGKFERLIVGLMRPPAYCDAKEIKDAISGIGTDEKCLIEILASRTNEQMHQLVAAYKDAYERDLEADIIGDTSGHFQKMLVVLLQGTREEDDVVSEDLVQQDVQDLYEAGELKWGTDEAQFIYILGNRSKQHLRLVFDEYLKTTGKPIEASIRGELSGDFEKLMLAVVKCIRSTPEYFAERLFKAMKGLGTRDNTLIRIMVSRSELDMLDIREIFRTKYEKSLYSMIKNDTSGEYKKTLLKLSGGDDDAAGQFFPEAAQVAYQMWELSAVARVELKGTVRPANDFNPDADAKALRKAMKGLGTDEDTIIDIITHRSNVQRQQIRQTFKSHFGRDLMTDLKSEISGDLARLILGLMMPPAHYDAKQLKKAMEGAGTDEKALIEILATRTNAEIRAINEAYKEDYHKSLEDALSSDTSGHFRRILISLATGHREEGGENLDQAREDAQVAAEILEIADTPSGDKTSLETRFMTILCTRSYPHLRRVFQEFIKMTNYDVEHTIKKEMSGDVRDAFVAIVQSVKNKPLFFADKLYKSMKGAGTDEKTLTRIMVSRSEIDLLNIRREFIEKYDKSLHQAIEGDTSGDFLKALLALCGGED

T5: ZG16B (human, UniProt Q96DA0)
T5 construct: expressed in transfected HEK293 cells
T5 sequence (looked up): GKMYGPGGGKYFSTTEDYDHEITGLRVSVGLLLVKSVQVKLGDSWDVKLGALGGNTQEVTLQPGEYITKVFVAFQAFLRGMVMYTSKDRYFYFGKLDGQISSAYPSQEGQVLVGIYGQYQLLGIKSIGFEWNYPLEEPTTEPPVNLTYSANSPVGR


Columns and labels:
Experiment in all cases: cell array, transfected fixed HEK293 cells
PPT1 = target: T1, PPT1
Experimental: (§1) Transfection of all plasmids was confirmed by screening for the co-encoded marker ZS green (FIG. 13A).
(§2) Primary hits (duplicate spots) were identified by analysing fluorescence (AF647 and ZsGreenl) on ImageQuant. Vectors encoding all hits were sequenced to confirm their correct identities. […] Slides were analysed as above.

MS4A1 = target: T2, MS4A1
Experimental: as §1, §2

EGFR = target: T6, EGFR (human, UniProt P00533)
T6 construct: expressed in transfected HEK293 cells
Experimental: as §1, §2

PSAPL1 [1] = target: T3, PSAPL1
Experimental: as §1, §2

ANXA6 = target: T4, ANXA6
Experimental: as §1, §2

ZG16B = target: T5, ZG16B
Experimental: as §1, §2

DES = target: T7, DES (human, UniProt P17661)
T7 construct: expressed in transfected HEK293 cells
Experimental: as §1, §2

COL23A1 = target: T8, COL23A1 (human, UniProt Q86Y22)
T8 construct: expressed in transfected HEK293 cells
Experimental: as §1, §2

PSAPL1 [2] = target: T3, PSAPL1; remark: listed apart in the source
Experimental: as §1, §2

T8 sequence (Q86Y22 whole entry): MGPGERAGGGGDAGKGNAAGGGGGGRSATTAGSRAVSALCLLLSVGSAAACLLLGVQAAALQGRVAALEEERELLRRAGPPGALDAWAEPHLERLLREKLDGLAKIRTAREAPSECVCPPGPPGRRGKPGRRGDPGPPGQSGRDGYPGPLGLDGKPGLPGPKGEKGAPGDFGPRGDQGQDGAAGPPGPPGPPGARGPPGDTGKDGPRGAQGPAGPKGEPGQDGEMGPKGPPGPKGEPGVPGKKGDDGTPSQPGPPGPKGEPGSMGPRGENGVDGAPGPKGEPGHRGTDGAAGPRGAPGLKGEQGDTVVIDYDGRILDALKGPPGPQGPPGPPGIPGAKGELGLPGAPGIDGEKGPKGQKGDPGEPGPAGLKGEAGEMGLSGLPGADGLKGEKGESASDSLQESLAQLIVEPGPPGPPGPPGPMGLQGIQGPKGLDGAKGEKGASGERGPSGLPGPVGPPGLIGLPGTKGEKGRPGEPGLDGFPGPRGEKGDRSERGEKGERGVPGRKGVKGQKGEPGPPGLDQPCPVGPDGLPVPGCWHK
T7 sequence (P17661 2-470 limits assumed): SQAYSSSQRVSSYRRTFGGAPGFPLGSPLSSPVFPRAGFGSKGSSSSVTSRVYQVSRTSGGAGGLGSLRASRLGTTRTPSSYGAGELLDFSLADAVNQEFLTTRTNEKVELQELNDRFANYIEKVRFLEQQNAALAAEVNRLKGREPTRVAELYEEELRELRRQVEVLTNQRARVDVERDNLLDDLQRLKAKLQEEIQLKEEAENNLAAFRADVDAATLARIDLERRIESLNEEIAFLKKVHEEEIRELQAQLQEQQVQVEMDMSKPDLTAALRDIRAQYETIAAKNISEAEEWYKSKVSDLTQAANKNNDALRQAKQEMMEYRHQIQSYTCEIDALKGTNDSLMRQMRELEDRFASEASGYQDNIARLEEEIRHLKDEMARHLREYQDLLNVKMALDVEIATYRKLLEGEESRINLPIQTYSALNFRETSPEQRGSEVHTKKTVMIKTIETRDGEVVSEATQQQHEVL

binding result (PPT1)	binding result (MS4A1)	binding result (EGFR)	binding result (PSAPL1 [1])	binding result (ANXA6)	binding result (ZG16B)	binding result (DES)	binding result (COL23A1)	binding result (PSAPL1 [2])	Binder
no binding (tested: 2 µg/ml)	no binding (tested: 2 µg/ml)	no binding (tested: 2 µg/ml)	no binding (tested: 2 µg/ml)	no binding (tested: 2 µg/ml)	no binding (tested: 2 µg/ml)	no binding (tested: 2 µg/ml)			humanized h37M, human IgG1 (antibody, V domains shown, human IgG1; terbium-labelled as the tracer of the HTRF assays; also called C-KIT-h37M; h37M-IgG1) VH: QVQLVQSGAEVKKPGASVKLSCKASGYTFTDYYINWVRQAPGKGLEWIARIYPGSGNTYYNEKFKGRATLTADKSTSTAYMQLSSLRSEDTAVYFCARGVYYFDYWGQGTTVTVSS VL: DIVMTQSPSSLSASVGDRVTITCKASQNVRTNVAWYQQKPGKAPKALIYSASYRYSGVPDRFTGSGSGTDFTLTISSLQPEDFADYFCQQYNSYPRTFGGGTKVEIK
							no binding (tested: 2 µg/ml)	no binding (tested: 2 µg/ml)	MH1, human IgG1 (antibody, V domains shown, IgG1; also called IgG1-MH1) VH: QVQLVQSGAEVKKPGASVKVSCKASGYTFTDYYMNWVRQAPGQGLEWMGRIYPGSGNTYYAQKFQGRVTMTRDTSTSTVYMELSSLRSEDTAVYYCARGVYYYDYWGQGTLVTVSS VL: DIQMTQSPSSLSASVGDRVTITCRASQGIRTNLAWFQQKPGKAPKSLIYAASSLQSGVPSRFSGSGSGTDFTLTISSLQPEDFATYYCQQYNSYPRTFGGGTKVEIK
